# From paper PMC10816986, “The Role of Key Amino Acids of the Human Fe(II)/2OG-Dependent Dioxygenase ALKBH3 in Structural Dynamics and Repair Activity toward Methylated DNA” (International Journal of Molecular Sciences, 2024)
# T1: ALKBH3 L177A (Homo sapiens, UniProt Q96Q83 1-286, L177A)
# T1 sequence: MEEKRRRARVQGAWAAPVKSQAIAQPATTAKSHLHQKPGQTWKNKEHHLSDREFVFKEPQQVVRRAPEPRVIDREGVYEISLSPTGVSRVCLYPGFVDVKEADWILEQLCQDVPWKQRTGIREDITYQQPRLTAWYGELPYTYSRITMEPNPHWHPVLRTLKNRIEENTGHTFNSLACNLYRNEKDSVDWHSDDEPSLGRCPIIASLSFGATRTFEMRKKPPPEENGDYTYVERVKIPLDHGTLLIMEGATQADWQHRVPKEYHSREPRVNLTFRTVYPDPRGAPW
# T2: ALKBH3 H191A (Homo sapiens, UniProt Q96Q83 1-286, H191A)
# T2 sequence: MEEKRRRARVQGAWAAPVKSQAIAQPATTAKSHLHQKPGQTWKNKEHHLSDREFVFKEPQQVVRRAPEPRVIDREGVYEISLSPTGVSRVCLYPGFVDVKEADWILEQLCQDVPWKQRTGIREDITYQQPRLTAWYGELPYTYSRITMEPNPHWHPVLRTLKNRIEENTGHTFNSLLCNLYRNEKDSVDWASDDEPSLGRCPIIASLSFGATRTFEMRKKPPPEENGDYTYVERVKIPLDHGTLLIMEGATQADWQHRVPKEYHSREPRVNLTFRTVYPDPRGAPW
# T3: ALKBH3 wt (Homo sapiens, UniProt Q96Q83 1-286)
# T3 sequence: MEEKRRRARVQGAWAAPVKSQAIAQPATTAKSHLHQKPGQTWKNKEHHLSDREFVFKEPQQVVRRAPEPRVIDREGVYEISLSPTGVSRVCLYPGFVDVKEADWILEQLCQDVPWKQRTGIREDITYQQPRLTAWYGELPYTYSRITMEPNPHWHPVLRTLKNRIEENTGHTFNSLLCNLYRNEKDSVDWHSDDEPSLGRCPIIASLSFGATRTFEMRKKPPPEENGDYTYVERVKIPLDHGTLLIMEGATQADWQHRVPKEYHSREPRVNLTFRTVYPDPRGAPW
# T4: ALKBH3 Y143A (Homo sapiens, UniProt Q96Q83 1-286, Y143A)
# T4 sequence: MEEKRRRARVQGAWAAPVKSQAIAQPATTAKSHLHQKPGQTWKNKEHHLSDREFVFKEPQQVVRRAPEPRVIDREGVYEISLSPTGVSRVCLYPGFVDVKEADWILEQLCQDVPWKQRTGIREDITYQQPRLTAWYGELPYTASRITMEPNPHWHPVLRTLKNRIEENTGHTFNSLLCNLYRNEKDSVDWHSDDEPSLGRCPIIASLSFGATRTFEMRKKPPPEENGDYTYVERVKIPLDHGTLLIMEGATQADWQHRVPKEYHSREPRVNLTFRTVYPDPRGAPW
# T5: ALKBH3 Y143F (Homo sapiens, UniProt Q96Q83 1-286, Y143F)
# T5 sequence: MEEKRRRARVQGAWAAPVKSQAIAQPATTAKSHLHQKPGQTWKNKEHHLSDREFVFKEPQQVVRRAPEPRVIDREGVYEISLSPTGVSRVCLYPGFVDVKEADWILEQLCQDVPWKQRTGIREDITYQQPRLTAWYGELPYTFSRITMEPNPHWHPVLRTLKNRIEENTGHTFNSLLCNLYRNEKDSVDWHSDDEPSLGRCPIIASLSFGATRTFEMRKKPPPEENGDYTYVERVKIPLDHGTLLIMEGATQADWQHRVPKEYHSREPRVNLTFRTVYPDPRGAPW
# B1: ALKBH2: human AlkB homolog 2 dioxygenase, literature comparison (protein, UniProt Q6NS38 1-261, looked up)
# DNA oxidative demethylase …: MDRFLVKGAQGGLLRKQEEQEPTGEEPAVLGGDKESTRKRPRREAPGNGGHSAGPSWRHIRAEGLDCSYTVLFGKAEADEIFQELEKEVEYFTGALARVQVFGKWHSVPRKQATYGDAGLTYTFSGLTLSPKPWIPVLERIRDHVSGVTGQTFNFVLINRYKDGCDHIGEHRDDERELAPGSPIASVSFGACRDFVFRHKDSRGKSPSRRVAVVRLPLAHGSLLMMNHPTNTHWYHSLPVRKKVLAPRVNLTFRKILLTKK
# B2: AlkB: E. coli AlkB dioxygenase, literature comparison (protein, UniProt P05050 1-216, looked up)
# Alpha-ketoglutarate-dependent …: MLDLFADAEPWQEPLAAGAVILRRFAFNAAEQLIRDINDVASQSPFRQMVTPGGYTMSVAMTNCGHLGWTTHRQGYLYSPIDPQTNKPWPAMPQSFHNLCQRAATAAGYPDFQPDACLINRYAPGAKLSLHQDKDEPDLRAPIVSVSLGLPAIFQFGGLKRNDPLKRLLLEHGDVVVWGGESRLFYHGIQPLKAGFHPLTIDCRYNLTFRQAGKKE
# Experiments:
# ALKBH3 L177A = molecular target: T1, ALKBH3 L177A; test: intrinsic Trp fluorescence titration; apoprotein, 2 mM EDTA, no Fe(II)/2OG; Titration: 50 mM HEPES-KOH pH 7.8, 50 mM KCl, 10 mM MgCl2, 2 mM EDTA, 25 °C, 1 µM apoprotein; stopped-flow: with Fe(II) and 2OG, 0.5-4.0 µM DNA (buffer not in material); conditions: protein: recombinant; (Ni-chelating purification); single strand
# ALKBH3 H191A = molecular target: T2, ALKBH3 H191A; test: as above; conditions: protein: recombinant; (Ni-chelating purification); single strand
# ALKBH3 wt [1] = molecular target: T3, ALKBH3 wt; test: as above; conditions: protein: recombinant; tags: N-terminal His-tag (pET28a); single strand
# ALKBH3 Y143A = molecular target: T4, ALKBH3 Y143A; test: as above; conditions: protein: recombinant; tags: N-terminal His-tag (pET28a); single strand
# ALKBH3 Y143F [2] = molecular target: T5, ALKBH3 Y143F; test: stopped-flow FRET kinetics (DynaFit); Fe(II), 2OG; overall Ka = K1+K1K2+K1K2K3; Titration: 50 mM HEPES-KOH pH 7.8, 50 mM KCl, 10 mM MgCl2, 2 mM EDTA, 25 °C, 1 µM apoprotein; stopped-flow: with Fe(II) and 2OG, 0.5-4.0 µM DNA (buffer not in material); conditions: protein: recombinant; tags: N-terminal His-tag (pET28a); label: 5'-6-FAM, 3'-BHQ1; single strand
# ALKBH3 wt [3] = molecular target: T3, ALKBH3 wt; test: as above; conditions: protein: recombinant; tags: N-terminal His-tag (pET28a); label: 5'-6-FAM, 3'-BHQ1; single strand
# [4] = parameters: method as in PMID 35956910, doi:10.1134/S1068162019060190; conditions: previous investigations; read-out: Kd for complexes with transitional metals and 2OG; cited from earlier work
# [5] = tested on: single-stranded DNA substrate m3C_FAM; parameters: method as in PMID 35956910; conditions: similar m3C-containing substrate, identical conditions; cited from earlier work
# ALKBH3 Y143F [6] = molecular target: T5, ALKBH3 Y143F; test: stopped-flow FRET kinetics (DynaFit); Fe(II), 2OG; enzyme-product complex; Titration: 50 mM HEPES-KOH pH 7.8, 50 mM KCl, 10 mM MgCl2, 2 mM EDTA, 25 °C, 1 µM apoprotein; stopped-flow: with Fe(II) and 2OG, 0.5-4.0 µM DNA (buffer not in material); conditions: protein: recombinant; tags: N-terminal His-tag (pET28a); label: 5'-6-FAM, 3'-BHQ1; single strand
# ALKBH3 wt [7] = molecular target: T3, ALKBH3 wt; test: as above; conditions: protein: recombinant; tags: N-terminal His-tag (pET28a); label: 5'-6-FAM, 3'-BHQ1; single strand
# [8] = parameters: method as in PMID 22443471; conditions: cited from earlier work
# [9] = tested on: m3C_FRET substrate (m3C-containing DNA); parameters: method as in PMID 31847292; conditions: AlkB-ssDNA, pre-steady-state; cited from earlier work
molecule,measurement,setting,value
"ACAGGATCCGGCATA (ssDNA, N3-methylcytosine at position 9) [m3C]",Kd,ALKBH3 L177A,5.7 ± 0.3 µM
same,Kd,ALKBH3 H191A,4.3 ± 0.3 µM
same,Kd,ALKBH3 wt [1],2.8 ± 0.1 µM
same,Kd,ALKBH3 Y143A,6.3 ± 0.6 µM
"ACAGGATCCGGCATA (ssDNA, N3-methylcytosine at position 9) [m3C_FRET]",Ka,ALKBH3 Y143F [2],1.4e+06 M⁻¹
same,Ka,ALKBH3 wt [3],1.9e+06 M⁻¹
B1,Kd,[4],15 to 50 µM
same,"observed rate constant for demethylation, kobs",[5],0.22 min⁻¹
"ACAGGATCCGGCATA (ssDNA, none (m3C demethylated to C)) [m3C_FRET repaired product]",Kd,ALKBH3 Y143F [6],0.083 µM
same,Kd,ALKBH3 wt [7],0.72 µM
B2,Kd,[4],15 to 50 µM
same,Tm,[8],54 °C
same,kr (hydroxylation of the substrate's methyl group),[9],0.19 s⁻¹
